Laboratory results from US20210269545A1 (published 2021).

Target: T1, CD38 (human, UniProt P28907 43-300, limits assumed)
T1 construct: Soluble antigen of the bio-layer interferometry experiments; also called Cluster of Differentiation 38; CD38 antigen (Octet)
Experiment: BLI (Octet Red), antibody on anti-hIgG Fc (AHC) sensor, 1:1 model

Kd | Binder
94.4 nM | BS1M-4 (bispecific antibody, Variant of BS1 in the CDR-H2 of the anti-CD38 arm; not shown: heavy chain constant region of the BS1 format) heavy 1: QVQLVQSGAEVKKPGSSVKVSCKASGGTFSSYAFSWVRQAPGQGLEWMGRVIPHLGTANSAQKFQGRVTITADKSTSTAYMELSSLRSEDTAVYYCARDDIAALGPFDYWGQGTLVTVSS heavy 2: not shown light: not shown
60.5 nM | BS1M-7 (bispecific antibody, Variant of BS1 in the CDR-H2 of the anti-CD38 arm; not shown: heavy chain constant region of the BS1 format) heavy 1: QVQLVQSGAEVKKPGSSVKVSCKASGGTFSSYAFSWVRQAPGQGLEWMGRVIPQLGTANSAQKFQGRVTITADKSTSTAYMELSSLRSEDTAVYYCARDDIAALGPFDYWGQGTLVTVSS heavy 2: not shown light: not shown

Target: T1, CD38
Experiment: BLI (Octet Red), antibody on anti-hIgG Fc (AHC) sensor
Description: Binding experiments were performed on Octet Red at 25° C. The antibodies were loaded onto anti-hIgG Fc Capture (AHC) biosensors for 300 seconds. The ligand-loaded sensors were dipped into a two-fold series dilution (starting at 300 nM) of the antigens (CD19 and CD38) for 240 seconds of CD19 and 150 seconds of CD38 for association followed by dissociation for 600 seconds of CD19 and 130 seconds of CD38. Kinetic constants were calculated using a monovalent (1:1) binding model.

Binder | binding result
BS1M-5 (bispecific antibody, Variant of BS1; not shown: heavy chain constant region of the BS1 format) heavy 1: QVQLVQSGAEVKKPGSSVKVSCKASGGTFSSYAFSWVRQAPGQGLEWMGRVTPHLGTANSAQKFQGRVTITADKSTSTAYMELSSLRSEDTAVYYCARDDIAALGPFDYWGQGTLVTVSS heavy 2: not shown light: not shown | no binding
BS1M-9 (bispecific antibody, Variant of BS1; not shown: heavy chain constant region of the BS1 format) heavy 1: QVQLVQSGAEVKKPGSSVKVSCKASGGTFSSYAFSWVRQAPGQGLEWMGRVIPQQGTANSAQKFQGRVTITADKSTSTAYMELSSLRSEDTAVYYCARDDIAALGPFDYWGQGTLVTVSS heavy 2: not shown light: not shown | no binding

Now from value to binder:

binding result | Binder
no binding | BS1M-2 (bispecific antibody, Variant of BS1; not shown: heavy chain constant region of the BS1 format) heavy 1: QVQLVQSGAEVKKPGSSVKVSCKASGGTFSSYAFSWVRQAPGQGLEWMGRVTPFLGTANSAQKFQGRVTITADKSTSTAYMELSSLRSEDTAVYYCARDDIAALGPFDYWGQGTLVTVSS heavy 2: not shown light: not shown
no binding | BS1M-8 (bispecific antibody, Variant of BS1; not shown: heavy chain constant region of the BS1 format) heavy 1: QVQLVQSGAEVKKPGSSVKVSCKASGGTFSSYAFSWVRQAPGQGLEWMGRVIPHQGTANSAQKFQGRVTITADKSTSTAYMELSSLRSEDTAVYYCARDDIAALGPFDYWGQGTLVTVSS heavy 2: not shown light: not shown
